{"source": "patent US8394641B2", "about": "“Method of hydrolyzing an enzymatic substrate” (Advanced Liquid Logic Inc., priority 2009, dated 2013)", "molecules": {"B1": {"name": "recombinant iduronidase: Recombinant α-L-Iduronidase from R&D Systems, second enzyme of the Hunter's assay (protein, UniProt P35475 28-653, looked up)", "Alpha-L-iduronidase": "APHLVHVDAARALWPLRRFWRSTGFCPPLPHSQADQYVLSWDQQLNLAYVGAVPHRGIKQVRTHWLLELVTTRGSTGRGLSYNFTHLDGYLDLLRENQLLPGFELMGSASGHFTDFEDKQQVFEWKDLVSSLARRYIGRYGLAHVSKWNFETWNEPDHHDFDNVSMTMQGFLNYYDACSEGLRAASPALRLGGPGDSFHTPPRSPLSWGLLRHCHDGTNFFTGEAGVRLDYISLHRKGARSSISILEQEKVVAQQIRQLFPKFADTPIYNDEADPLVGWSLPQPWRADVTYAAMVVKVIAQHQNLLLANTTSAFPYALLSNDNAFLSYHPHPFAQRTLTARFQVNNTRPPHVQLLRKPVLTAMGLLALLDEEQLWAEVSQAGTVLDSNHTVGVLASAHRPQGPADAWRAAVLIYASDDTRAHPNRSVAVTLRLRGVPPGPGLVYVTRYLDNGLCSPDGEWRRLGRPVFPTAEQFRRMRAAEDPVAAAPRPLPAGGRLTLRPALRLPSLLLVHVCARPEKPPGQVTRLRALPLTQGQLVLVWSDEHVGSKCLWTYEIQFSQDGKAYTPVSRKPSTFNLFVFSPDTGAVSGSYRVRALDYWARPGPFSDPVPYLEVPVPRGPPSPGNP"}}, "key": {"[1]": {"molecular_target": "iduronate-2-sulfate sulphatase (IDS) (Homo sapiens, UniProt P22304)", "sequence (P22304 34-550)": "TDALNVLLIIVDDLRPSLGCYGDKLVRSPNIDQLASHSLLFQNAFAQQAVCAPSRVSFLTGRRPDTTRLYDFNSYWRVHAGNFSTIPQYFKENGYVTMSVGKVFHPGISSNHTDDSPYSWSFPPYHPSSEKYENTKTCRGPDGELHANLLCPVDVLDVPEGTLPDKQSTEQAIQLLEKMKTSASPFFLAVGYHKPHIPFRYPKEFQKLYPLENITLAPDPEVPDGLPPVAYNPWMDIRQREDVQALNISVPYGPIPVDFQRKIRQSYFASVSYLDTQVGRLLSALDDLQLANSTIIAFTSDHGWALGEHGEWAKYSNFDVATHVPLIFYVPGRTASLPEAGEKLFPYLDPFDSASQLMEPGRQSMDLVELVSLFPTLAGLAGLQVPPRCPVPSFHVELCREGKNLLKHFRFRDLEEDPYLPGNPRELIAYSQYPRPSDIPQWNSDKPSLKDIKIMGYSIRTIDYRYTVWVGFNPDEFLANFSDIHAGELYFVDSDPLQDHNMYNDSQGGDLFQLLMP", "details": "cited from earlier work"}, "[2]": {"molecular_target": "T1, acid β-D-glucosidase (Homo sapiens, UniProt P04062)", "T1 sequence (P04062 40-536)": "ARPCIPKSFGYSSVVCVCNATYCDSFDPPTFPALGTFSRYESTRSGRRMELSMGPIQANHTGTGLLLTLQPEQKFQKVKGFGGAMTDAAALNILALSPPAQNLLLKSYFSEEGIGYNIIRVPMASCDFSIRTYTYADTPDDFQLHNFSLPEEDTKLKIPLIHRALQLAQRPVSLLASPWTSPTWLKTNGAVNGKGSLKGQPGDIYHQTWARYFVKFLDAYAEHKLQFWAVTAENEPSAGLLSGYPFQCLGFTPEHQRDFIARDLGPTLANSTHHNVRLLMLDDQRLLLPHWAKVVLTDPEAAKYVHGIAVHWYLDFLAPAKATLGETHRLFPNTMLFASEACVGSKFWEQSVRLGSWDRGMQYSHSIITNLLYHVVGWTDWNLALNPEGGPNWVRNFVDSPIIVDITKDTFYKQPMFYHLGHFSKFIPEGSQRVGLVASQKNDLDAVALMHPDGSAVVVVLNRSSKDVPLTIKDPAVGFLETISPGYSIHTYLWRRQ", "assay": "Droplet-based enzymatic assay for acid β-D-glucosidase (Gaucher), comparison of substrates", "assay_type": "biochemical", "details": "droplet actuator, Gaucher's disease testing", "text": "The invention provides assay methods for detection of Gaucher and Niemann-Pick diseases on a droplet actuator. Gaucher's disease and Niemann-Pick's disease are caused by deficient activity of the lysosomal enzymes acid β-D-glucosidase and acid sphingomyelinase, respectively. In one embodiment, the invention provides methods for a droplet-based enzymatic assay for acid β-D-glucosidase activity. For example, a multifluoroethylumbelliferyl-β-D-glucoside, such as a 4-pentafluoroethylumbelliferyl-β-D-glucoside, may be used as a substrate fluid in a droplet-based enzymatic assay for acid β-D-glucosidase enzyme activity. The increased number of fluorines makes the substrate fluid more labile to hydrolysis. The excitation/emission wavelengths for 4-pentafluoroethylumbelliferyl-β-D-glucoside are 385/495 nm."}, "[3]": {"assay": "Recombinant iduronidase standard curve in the presence of BSA on a droplet actuator", "assay_type": "biochemical", "details": "after stop buffer, room temperature", "experimental": "Serial dilutions of recombinant iduronidase were prepared in 0.05 M Na-Acetate/0.05 M Acetic acid buffer, pH 5.0 from a stock of 0.5 mg/mL recombinant iduronidase containing 1 mg/mL molecular biology grade bovine serum albumin (BSA). A substrate fluid was prepared in 0.05 M Na Acetate, pH 5.0 containing 1 mM 4-methylumbelliferyl-α-L-idopyranosiduronic acid (4-MUI) and 100 μM D-saccharic acid 1,4-lactone.\nThe digital microfluidic protocol for the iduronidase standard curve included the following steps: • 1. Mix one 1× droplet of iduronidase and one 1× droplet of substrate fluid to yield a 2× reaction droplet; • 2. Split the 2× reaction droplet into two 1× reaction droplets; • 3. Dispense 11 droplets of stop buffer (sodium carbonate pH 10.1, 0.01% Tween® 20) and combine them with the first set of 1× reaction droplets; • 4. Detect end point fluorescence at 365 nm (t=0); • 5. Incubate the second set of 1× reaction droplets for 1 h at room temperature; • 6. After 1 h of incubation, dispense 11 droplets of stop buffer and combine with the reaction droplets; and • 7. Detect end point fluorescence at 365 nm (t=1 h)."}, "[4]": {"assay": "Modified Hunter's assay (IDS) on a droplet actuator, recombinant iduronidase as second enzyme", "assay_type": "biochemical, human"}, "[5]": {"details": "stock solution; cited from earlier work"}}, "note": "Where two headings read alike, the source gives them in different places."}
{"molecule": "Cl", "note": "[chloride]", "values": [{"measurement": "IDS activity inhibited", "setting": "[1]; 30 mM chloride", "result": 50, "unit": "%"}, {"measurement": "IDS activity inhibited", "setting": "[1]; 250 mM chloride", "result": "completely inhibited"}]}
{"molecule": "O=c1cc(C(F)(F)C(F)(F)F)c2ccc(O[C@@H]3O[C@H](CO)[C@@H](O)[C@H](O)[C@H]3O)cc2o1", "note": "[4-pentafluoroethylumbelliferyl-β-D-glucoside]", "values": [{"measurement": "enzymatic activity compared with the 4-methylumbelliferyl-β-D-glucoside substrate fluid", "setting": "[2]", "result": "as much as eight-fold greater"}]}
{"molecule": "B1", "values": [{"measurement": "Relative fluorescence at t = 1 hrs incubation (Rfu)", "setting": "[3]; Idu 0.001 μg/mL", "result": 34.6948, "unit": "Rfu"}, {"measurement": "Relative fluorescence at t = 1 hrs incubation (Rfu)", "setting": "[3]; Idu 0.01 μg/mL", "result": 179.1927, "unit": "Rfu"}, {"measurement": "Relative fluorescence at t = 1 hrs incubation (Rfu)", "setting": "[3]; Idu 0.1 μg/mL", "result": 999.3997, "unit": "Rfu"}, {"measurement": "Relative fluorescence at t = 1 hrs incubation (Rfu)", "setting": "[3]; Idu 1 μg/mL", "result": 7427.665, "unit": "Rfu"}, {"measurement": "concentration dependence of Hunter's assay activity", "setting": "[4]; 1 μg/mL vs 10 μg/mL, eight normal plasma samples", "result": "higher activity at 10 μg/mL"}, {"measurement": "liberation of 4-MU from 4-methylumbelliferyl-α-L-iduronic acid in the IDS assay", "setting": "[4]; 1 μg/ml, data not shown", "result": "sufficient"}, {"measurement": "specific activity of stock enzyme", "setting": "[5]", "result": "> 7.5", "unit": "nmol/min/µg"}]}
